Source: paper PMC6131548, “Molecular basis for disassembly of an importin:ribosomal protein complex by the escortin Tsr2” (Nature Communications, 2018)
One block for each binder: values may come before it.

Columns and labels:
Conditions in all cases: both partners purified
Tsr2-N (NMR) = target: T1, Tsr2-N (NMR) (S. cerevisiae (yeast), UniProt Q06672 1-152); assay: NMR titration; stepwise titration of the unlabeled component to the labeled one (Tsr2-N, ESS2 peptide), followed by 2D 15N,1H-HSQC; 293.15 K, NMR buffer
T1 construct: Used unlabeled or 13C,15N-labeled; also called N-terminal domain of Tsr2; source: E. coli BL21 (DE3) CodonPlus-RIL, purified (HisTrap, TEV, Superdex 75); not shown: (His)6-tagged GB1 domain, N-terminal, cleaved
T1 sequence (looked up): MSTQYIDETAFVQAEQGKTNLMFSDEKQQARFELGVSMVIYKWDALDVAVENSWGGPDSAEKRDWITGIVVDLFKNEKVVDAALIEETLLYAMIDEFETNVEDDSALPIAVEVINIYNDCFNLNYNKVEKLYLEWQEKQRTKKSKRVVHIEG

[1] = target: T2, Tsr2 of the recombinant Tsr2:eS26 complex (XL-MS) (S. cerevisiae (yeast), UniProt Q06672 1-205); assay: cross-linking; recombinant Tsr2:eS26 complex, 1 mg/ml in 50 mM HEPES; DSS, PDH/DMTMM or ADH/DMTMM, 37 °C; digestion, SEC, LC-MS/MS (XL-MS)
T2 construct: Tsr2, S. cerevisiae; source: recombinant Tsr2:eS26 complex, 1 mg/ml in 50 mM HEPES
T2 sequence (looked up): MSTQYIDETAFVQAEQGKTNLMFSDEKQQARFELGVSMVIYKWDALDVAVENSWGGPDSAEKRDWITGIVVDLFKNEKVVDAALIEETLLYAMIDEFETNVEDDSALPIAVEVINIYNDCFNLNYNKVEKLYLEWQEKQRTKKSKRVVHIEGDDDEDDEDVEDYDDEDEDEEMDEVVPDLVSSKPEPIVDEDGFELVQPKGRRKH

hTsr2E64G (ITC) = target: T3, hTsr2E64G (ITC) (human, UniProt Q969E8 1-191, E64G); assay: ITC; VP-ITC; 20–40 µM Tsr2 variant in the cell, 400–800 µM ESS2 peptide in the syringe; 25 °C, 20 mM NaPi pH 7.1, 1 mM DTT, 10 µM EDTA
T3 construct: human Tsr2 with the Diamond-Blackfan anemia-linked mutation E64G; also called E64G-DBA variant; hTsr2E64G mutant; source: E. coli BL21
T3 sequence (looked up): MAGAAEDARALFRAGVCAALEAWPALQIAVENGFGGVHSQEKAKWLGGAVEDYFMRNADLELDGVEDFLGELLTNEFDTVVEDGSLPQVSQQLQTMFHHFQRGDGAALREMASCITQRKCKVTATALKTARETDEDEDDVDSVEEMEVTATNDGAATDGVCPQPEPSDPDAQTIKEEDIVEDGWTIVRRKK

hTsr2 (ITC) = target: T4, hTsr2 (ITC) (human, UniProt Q969E8 1-191); assay: as above
T4 construct: human Tsr2; probably made like the NMR constructs; also called WT hTsr2; human Tsr2; source: E. coli BL21
T4 sequence (looked up): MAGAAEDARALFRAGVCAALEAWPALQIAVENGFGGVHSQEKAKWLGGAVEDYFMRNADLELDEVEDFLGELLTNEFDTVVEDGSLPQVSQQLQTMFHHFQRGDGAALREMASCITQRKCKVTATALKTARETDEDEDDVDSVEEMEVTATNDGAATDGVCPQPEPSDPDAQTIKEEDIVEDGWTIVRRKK

binding result (Tsr2-N (NMR)): binds
B1: ESS2 peptide (peptide, UniProt P39938 100-119, looked up)
peptide: RPRFNRENKVSPADAAKKAL
notes: eukaryotic-specific segment 2 of eS26 (Rps26A), S. cerevisiae, residues 100-119 as deposited; ESS2 is defined as 99-119 in the results, the deposited peptide as 100-119; also called eS26-ESS2; S26A(100-119); source: E. coli BL21 (DE3) CodonPlus-RIL, cleaved from (His)6-GB1 by TEV, purified by reverse-phase HPLC (C8); not shown: (His)6-tagged GB1 domain, N-terminal, cleaved

binding result [1]: binds
B2: eS26 of the recombinant Tsr2:eS26 complex (XL-MS) (natural protein)
chain: not shown
notes: ribosomal protein eS26 (Rps26A), S. cerevisiae; source: recombinant Tsr2:eS26 complex, 1 mg/ml in 50 mM HEPES

Kd (hTsr2E64G (ITC)): 90 µM
Kd (hTsr2 (ITC)): 2 µM
B3: human ESS2 peptide (peptide)
chain: RFRPAGAAPRPPPKPM
modifications: Human limits are not printed. They are taken by ungapped alignment to the yeast ESS2 construct in PDB 6G04 (eS26 residues 100-119; the text defines ESS2 as 99-119), running to the human C-terminus. …
